# Source: article PMC5448812, “Distinct DNA-binding surfaces in the ATPase and linker domains of MutLγ determine its substrate specificities and exert separable functions in meiotic recombination and mismatch repair”
# B1: HJ80 (cb095-098) (structured_DNA)
# DNA 1: CTAGTATAGAGCCGGCGCGCCATGTCTAGATAGCGTTAGGTCTGCCGAATAGTACTACTCGGATCCCGAGCGAACCACGC
# DNA 2: GCGTGGTTCGCTCGGGATCCGAGTAGTACTATTCGGCAGAGGATTCGAATAGGCCTAATCGAATTCCGCCATCGATGCAC
# DNA 3: GTGCATCGATGGCGGAATTCGATTAGGCCTATTCGAATCCAGACGCGAGTAGATCTTCACGGTACCCGCGGTTACCCGTG
# DNA 4: CACGGGTAACCGCGGGTACCGTGAAGATCTACTCGCGTCTCCTAACGCTATCTAGACATGGCGCGCCGGCTCTATACTAG
# B2: HJ+1 (cb256, 351, 369, 98) (structured_DNA)
# DNA 1: CTAGTATAGAGCCGGCGCGCCATGTCTAGATAGCGTTAGGTCTGCCGAATAGTACTACTCGGATCCCGAGCGAACCACGC
# DNA 2: GCGTGGTTCGCTCGGGATCCGAGTAGTACTATTCGGCAGAGGATTCGAATAGGCCTAATCGAATTCCGCCATCGATGCAC
# DNA 3: GTGCATCGATGGCGGAATTCGATTAGGCCTATTCGAATCCAGACGCGAGTAGATCTTCACGGTACCCGCGGTTACCCGTG
# DNA 4: CACGGGTAACCGCGGGTACCGTGAAGATCTACTCGCGTCTCCTAACGCTATCTAGACATGGCGCGCCGGCTCTATACTAG
# modifications: phosphorothioates in strands 2 and 3 (segment 1), FeBABE-conjugated
# B3: ssDNA80 (cb099, poly-dT) (ssDNA)
# DNA: TTTTTTTTTTTTTTTTTTTTTTTTTTTTTTTTTTTTTTTTTTTTTTTTTTTTTTTTTTTTTTTTTTTTTTTTTTTTTTTT
# B4: ssDNA+ (cb361) (ssDNA)
# DNA: TTTTTTTTTTTTTTTTTTTTTTTTTTTTTTTTTTTTTTTTTTTTTTTTTTTTTTTTTTTTTTTTTTTTTTTTTTTTTTTT
# modifications: phosphorothioates every 8 nt, FeBABE-conjugated
# Key:
# HisFlag-Mlh1;Mlh3 [1] = target: T1, HisFlag-Mlh1;Mlh3 (Saccharomyces cerevisiae (S288c strain …, UniProt P38920;Q12083 1-769;1-715, |)); assay: EMSA; Hill slope 2.0 +/- 0.05; 5 mM EDTA; EMSA: 25 mM Tris-HCl pH 7.5, 15% glycerol, 100 mM NaCl, 2 mM DTT, 5 mM EDTA, 1 mg/ml BSA, 30 min 30 C, 1 nM DNA; pull-down: similar, 10% glycerol, 0.2 mg/ml BSA, 0.1% Triton X-100, 4 C; conditions: protein: recombinant;recombinant; tags: N-terminal 6xHis-2xFlag;none; copies: 1;1; label: 5'-32P when used as probe; four-way junction, 40 bp arms
# T1 sequence 1: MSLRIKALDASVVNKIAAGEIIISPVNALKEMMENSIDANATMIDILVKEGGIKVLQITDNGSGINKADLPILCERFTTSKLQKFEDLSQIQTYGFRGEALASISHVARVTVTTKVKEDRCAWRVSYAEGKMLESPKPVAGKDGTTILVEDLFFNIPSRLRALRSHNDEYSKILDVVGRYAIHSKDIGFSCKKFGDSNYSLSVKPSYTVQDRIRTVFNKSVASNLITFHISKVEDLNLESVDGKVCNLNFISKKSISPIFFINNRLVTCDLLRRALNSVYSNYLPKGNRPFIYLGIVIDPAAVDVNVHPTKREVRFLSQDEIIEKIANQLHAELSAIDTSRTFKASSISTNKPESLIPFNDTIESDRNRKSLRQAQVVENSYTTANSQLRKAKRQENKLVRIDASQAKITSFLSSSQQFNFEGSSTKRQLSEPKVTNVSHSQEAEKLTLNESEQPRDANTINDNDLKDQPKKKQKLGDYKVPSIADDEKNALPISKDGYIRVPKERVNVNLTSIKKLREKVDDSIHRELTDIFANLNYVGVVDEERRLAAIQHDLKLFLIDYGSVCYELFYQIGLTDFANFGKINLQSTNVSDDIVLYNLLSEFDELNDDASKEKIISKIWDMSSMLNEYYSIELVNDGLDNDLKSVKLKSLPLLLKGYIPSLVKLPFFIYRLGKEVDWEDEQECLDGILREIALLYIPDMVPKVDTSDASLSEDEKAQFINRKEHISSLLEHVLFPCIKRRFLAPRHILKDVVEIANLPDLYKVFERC
# T1 sequence 2: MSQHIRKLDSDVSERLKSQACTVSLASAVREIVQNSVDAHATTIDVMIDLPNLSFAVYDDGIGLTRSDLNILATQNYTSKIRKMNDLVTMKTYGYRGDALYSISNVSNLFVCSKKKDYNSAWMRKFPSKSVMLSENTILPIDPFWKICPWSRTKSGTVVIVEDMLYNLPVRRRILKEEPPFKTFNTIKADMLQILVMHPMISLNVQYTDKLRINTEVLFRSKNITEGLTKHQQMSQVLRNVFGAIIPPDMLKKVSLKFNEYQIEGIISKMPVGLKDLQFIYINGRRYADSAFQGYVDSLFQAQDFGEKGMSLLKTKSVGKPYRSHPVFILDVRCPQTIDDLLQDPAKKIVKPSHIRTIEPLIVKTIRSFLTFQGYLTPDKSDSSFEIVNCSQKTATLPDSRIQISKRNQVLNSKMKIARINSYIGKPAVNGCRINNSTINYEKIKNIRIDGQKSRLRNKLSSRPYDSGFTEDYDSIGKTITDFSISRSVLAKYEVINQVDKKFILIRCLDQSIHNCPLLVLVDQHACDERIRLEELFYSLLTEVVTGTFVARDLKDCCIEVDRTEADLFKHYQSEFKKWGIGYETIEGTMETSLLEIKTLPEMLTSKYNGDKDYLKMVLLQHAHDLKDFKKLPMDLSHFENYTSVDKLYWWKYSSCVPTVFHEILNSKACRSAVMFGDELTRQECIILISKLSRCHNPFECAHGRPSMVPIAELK
# HisFlag-Mlh1;Mlh3 [2] = target: T1, HisFlag-Mlh1;Mlh3; assay: FeBABE footprinting; mostly Mlh1 linker; EMSA: 25 mM Tris-HCl pH 7.5, 15% glycerol, 100 mM NaCl, 2 mM DTT, 5 mM EDTA, 1 mg/ml BSA, 30 min 30 C, 1 nM DNA; pull-down: similar, 10% glycerol, 0.2 mg/ml BSA, 0.1% Triton X-100, 4 C; conditions: protein: recombinant;recombinant; tags: N-terminal 6xHis-2xFlag;none; copies: 1;1; label: 3'-biotin on strand 1; four-way junction, 40 bp arms
# [3] = target: T2, Mlh1 untagged;HisFlag-Mlh3 (Saccharomyces cerevisiae (S288c strain …, UniProt P38920;Q12083 1-769;1-715, |)); assay: FeBABE footprinting; Mlh3 linker enriched; EMSA: 25 mM Tris-HCl pH 7.5, 15% glycerol, 100 mM NaCl, 2 mM DTT, 5 mM EDTA, 1 mg/ml BSA, 30 min 30 C, 1 nM DNA; pull-down: similar, 10% glycerol, 0.2 mg/ml BSA, 0.1% Triton X-100, 4 C; conditions: protein: recombinant;recombinant; tags: none;N-terminal 6xHis-2xFlag; copies: 1;1; label: 3'-biotin on strand 1; four-way junction, 40 bp arms
# T2 sequence 1: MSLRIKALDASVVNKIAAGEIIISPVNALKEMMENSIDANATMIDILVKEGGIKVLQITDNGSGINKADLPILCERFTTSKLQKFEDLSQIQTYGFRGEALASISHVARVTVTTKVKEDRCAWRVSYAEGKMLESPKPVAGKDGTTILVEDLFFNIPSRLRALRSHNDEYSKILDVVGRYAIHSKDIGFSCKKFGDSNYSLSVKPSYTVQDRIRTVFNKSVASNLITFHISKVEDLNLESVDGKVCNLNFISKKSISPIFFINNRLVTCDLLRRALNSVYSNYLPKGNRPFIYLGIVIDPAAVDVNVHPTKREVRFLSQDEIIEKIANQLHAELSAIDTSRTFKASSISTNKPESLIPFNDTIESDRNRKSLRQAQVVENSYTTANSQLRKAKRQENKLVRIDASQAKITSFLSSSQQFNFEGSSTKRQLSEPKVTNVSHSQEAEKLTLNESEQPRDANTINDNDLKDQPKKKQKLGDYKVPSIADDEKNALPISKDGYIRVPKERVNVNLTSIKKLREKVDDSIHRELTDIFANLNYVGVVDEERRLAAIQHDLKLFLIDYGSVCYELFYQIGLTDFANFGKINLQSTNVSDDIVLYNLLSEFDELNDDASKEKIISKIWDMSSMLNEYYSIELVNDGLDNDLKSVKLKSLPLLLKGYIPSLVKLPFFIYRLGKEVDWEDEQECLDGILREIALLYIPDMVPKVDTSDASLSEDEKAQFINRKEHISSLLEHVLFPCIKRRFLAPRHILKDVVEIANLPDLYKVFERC
# T2 sequence 2: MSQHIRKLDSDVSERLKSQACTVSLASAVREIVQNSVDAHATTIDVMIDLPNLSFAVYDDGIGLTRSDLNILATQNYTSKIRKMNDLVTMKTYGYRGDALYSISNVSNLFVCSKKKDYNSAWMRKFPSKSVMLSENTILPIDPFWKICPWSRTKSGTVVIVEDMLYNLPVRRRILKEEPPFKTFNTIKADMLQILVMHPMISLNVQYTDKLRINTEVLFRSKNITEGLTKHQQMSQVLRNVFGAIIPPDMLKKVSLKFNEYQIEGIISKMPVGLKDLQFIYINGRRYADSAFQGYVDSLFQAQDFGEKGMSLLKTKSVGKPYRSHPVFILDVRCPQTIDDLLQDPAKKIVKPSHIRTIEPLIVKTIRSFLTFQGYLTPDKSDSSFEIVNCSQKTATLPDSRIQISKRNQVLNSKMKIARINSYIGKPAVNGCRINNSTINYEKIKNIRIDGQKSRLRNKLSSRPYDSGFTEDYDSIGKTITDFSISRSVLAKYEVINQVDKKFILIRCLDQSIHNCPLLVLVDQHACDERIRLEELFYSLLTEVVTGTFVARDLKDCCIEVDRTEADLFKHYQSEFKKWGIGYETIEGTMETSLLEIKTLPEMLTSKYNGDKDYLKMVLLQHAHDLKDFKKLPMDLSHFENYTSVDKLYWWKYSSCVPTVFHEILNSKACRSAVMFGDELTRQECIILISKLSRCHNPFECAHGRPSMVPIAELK
# HisFlag-Mlh1;Mlh3 [4] = target: T1, HisFlag-Mlh1;Mlh3; assay: competition; labeled poly-dT 80 nt; 500x excess in nt; EMSA: 25 mM Tris-HCl pH 7.5, 15% glycerol, 100 mM NaCl, 2 mM DTT, 5 mM EDTA, 1 mg/ml BSA, 30 min 30 C, 1 nM DNA; pull-down: similar, 10% glycerol, 0.2 mg/ml BSA, 0.1% Triton X-100, 4 C; conditions: protein: recombinant;recombinant; tags: N-terminal 6xHis-2xFlag;none; copies: 1;1
# HisFlag-Mlh1;Mlh3 [5] = target: T1, HisFlag-Mlh1;Mlh3; assay: EMSA; Hill slope 2.9 +/- 0.27; 5 mM EDTA; EMSA: 25 mM Tris-HCl pH 7.5, 15% glycerol, 100 mM NaCl, 2 mM DTT, 5 mM EDTA, 1 mg/ml BSA, 30 min 30 C, 1 nM DNA; pull-down: similar, 10% glycerol, 0.2 mg/ml BSA, 0.1% Triton X-100, 4 C; conditions: protein: recombinant;recombinant; tags: N-terminal 6xHis-2xFlag;none; copies: 1;1; label: 5'-32P when used as probe
# HisFlag-Mlh1;Mlh3 [6] = target: T1, HisFlag-Mlh1;Mlh3; assay: FeBABE footprinting; cleavage in Mlh1 N-terminal domain and linker; EMSA: 25 mM Tris-HCl pH 7.5, 15% glycerol, 100 mM NaCl, 2 mM DTT, 5 mM EDTA, 1 mg/ml BSA, 30 min 30 C, 1 nM DNA; pull-down: similar, 10% glycerol, 0.2 mg/ml BSA, 0.1% Triton X-100, 4 C; conditions: protein: recombinant;recombinant; tags: N-terminal 6xHis-2xFlag;none; copies: 1;1; label: 3'-biotin
# [7] = target: T2, Mlh1 untagged;HisFlag-Mlh3; assay: FeBABE footprinting; cleavage in Mlh3 N-terminal domain and linker; EMSA: 25 mM Tris-HCl pH 7.5, 15% glycerol, 100 mM NaCl, 2 mM DTT, 5 mM EDTA, 1 mg/ml BSA, 30 min 30 C, 1 nM DNA; pull-down: similar, 10% glycerol, 0.2 mg/ml BSA, 0.1% Triton X-100, 4 C; conditions: protein: recombinant;recombinant; tags: none;N-terminal 6xHis-2xFlag; copies: 1;1; label: 3'-biotin
binder,measurement,setting,value
B1,Kd,HisFlag-Mlh1;Mlh3 [1],72.9 nM
B2,binding result,HisFlag-Mlh1;Mlh3 [2],binds
same,binding result,[3],binds
TTTTTTTTTT (ssDNA) [ssDNA 10 nt competitor (poly-dT?)],binding result,HisFlag-Mlh1;Mlh3 [4],no binding
B3,Kd,HisFlag-Mlh1;Mlh3 [5],45.9 nM
B4,binding result,HisFlag-Mlh1;Mlh3 [6],binds
same,binding result,[7],binds
